In article PMC9482650, “Quantitative fragmentomics allow affinity mapping of interactomes” (Nature Communications, 2022):

T1: DFNB31_1, Q9P202
T1 sequence (Q9P202 135-233, limits assumed, looked up): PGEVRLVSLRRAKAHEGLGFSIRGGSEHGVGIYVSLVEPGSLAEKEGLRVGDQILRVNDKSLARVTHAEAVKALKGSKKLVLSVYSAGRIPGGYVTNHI

T2: DLG3_2, Q92796
T2 sequence (Q92796 221-321, limits assumed, looked up): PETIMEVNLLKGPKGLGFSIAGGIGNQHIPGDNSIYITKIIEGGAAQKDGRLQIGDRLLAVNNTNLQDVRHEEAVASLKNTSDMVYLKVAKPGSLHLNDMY

T3: HTRA4, P83105
T3 sequence (P83105 378-476, limits assumed, looked up): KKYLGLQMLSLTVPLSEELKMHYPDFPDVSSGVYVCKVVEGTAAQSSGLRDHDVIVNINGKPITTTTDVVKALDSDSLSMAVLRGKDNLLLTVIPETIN

T4: LIN7B, Q9HAP6
T4 sequence (Q9HAP6 88-185, limits assumed, looked up): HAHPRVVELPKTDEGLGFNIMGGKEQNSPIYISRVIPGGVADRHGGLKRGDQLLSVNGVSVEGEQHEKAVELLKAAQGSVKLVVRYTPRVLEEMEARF

T5: MPDZ_10, O75970
T5 sequence (O75970 1624-1722, limits assumed, looked up): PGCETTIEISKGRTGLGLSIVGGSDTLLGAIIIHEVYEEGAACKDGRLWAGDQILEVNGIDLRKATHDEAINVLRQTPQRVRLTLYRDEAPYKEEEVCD

T6: NHERF3_1, Q5T2W1
T6 sequence (Q5T2W1 4-100, limits assumed, looked up): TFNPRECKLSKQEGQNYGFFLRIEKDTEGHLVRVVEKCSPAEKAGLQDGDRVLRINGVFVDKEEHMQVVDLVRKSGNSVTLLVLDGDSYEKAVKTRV

T7: RAPGEF6, Q8TEU7
T7 sequence (Q8TEU7 525-625, limits assumed, looked up): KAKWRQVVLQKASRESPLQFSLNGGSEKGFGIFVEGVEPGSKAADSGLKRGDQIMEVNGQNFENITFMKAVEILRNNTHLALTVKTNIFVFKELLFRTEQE

T8: SNTA1, Q13424
T8 sequence (Q13424 82-180, limits assumed, looked up): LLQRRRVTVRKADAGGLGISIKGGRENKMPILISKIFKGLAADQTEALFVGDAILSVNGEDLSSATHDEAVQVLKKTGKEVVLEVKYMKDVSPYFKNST

T9: SNTG1, Q9NSN8
T9 sequence (Q9NSN8 52-150, limits assumed, looked up): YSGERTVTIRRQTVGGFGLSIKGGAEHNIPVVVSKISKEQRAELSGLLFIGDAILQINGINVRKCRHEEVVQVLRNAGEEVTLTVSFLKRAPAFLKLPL

T10: SNTG2, Q9NY99
T10 sequence (Q9NY99 68-166, limits assumed, looked up): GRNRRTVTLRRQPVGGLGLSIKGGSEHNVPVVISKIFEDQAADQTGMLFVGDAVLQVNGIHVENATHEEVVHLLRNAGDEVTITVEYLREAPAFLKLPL

T11: TIAM2, Q8IVF5
T11 sequence (Q8IVF5 885-986, limits assumed, looked up): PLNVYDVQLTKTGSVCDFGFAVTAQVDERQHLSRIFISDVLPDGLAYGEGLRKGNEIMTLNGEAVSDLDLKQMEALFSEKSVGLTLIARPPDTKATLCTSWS


Columns and labels:
Test in all cases: holdup assay
Set-up in all cases: key: below the threshold = too weak to quantify, mostly under pKd 3.1 to 4
Conditions in all cases: plain residues with an end cap or a label only (N-terminal biotin on a linker: ado-ado)
CASK, O14936 = biological target: CASK, O14936
Chain of CASK, O14936 (O14936 487-570): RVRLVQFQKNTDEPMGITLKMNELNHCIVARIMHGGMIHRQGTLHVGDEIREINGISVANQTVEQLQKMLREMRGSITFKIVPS

DFNB31_1, Q9P202 = biological target: T1, DFNB31_1, Q9P202
DLG3_2, Q92796 = biological target: T2, DLG3_2, Q92796
DLG4_3, P78352 = biological target: DLG4_3, P78352
Chain of DLG4_3, P78352 (P78352 306-403): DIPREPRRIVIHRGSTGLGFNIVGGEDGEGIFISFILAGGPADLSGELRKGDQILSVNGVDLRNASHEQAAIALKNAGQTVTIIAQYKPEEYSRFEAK

DLG5_1, Q8TDM6 = biological target: DLG5_1, Q8TDM6
Chain of DLG5_1, Q8TDM6 (Q8TDM6 617-713): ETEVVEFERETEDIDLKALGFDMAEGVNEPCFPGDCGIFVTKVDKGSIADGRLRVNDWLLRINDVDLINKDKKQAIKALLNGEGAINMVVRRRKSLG

FRMPD2_2, Q68DX3 = biological target: FRMPD2_2, Q68DX3
Chain of FRMPD2_2, Q68DX3 (Q68DX3 944-1038): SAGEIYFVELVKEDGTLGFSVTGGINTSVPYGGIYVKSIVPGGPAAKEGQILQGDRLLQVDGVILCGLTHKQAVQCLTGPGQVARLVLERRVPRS

GOPC, Q9HD26 = biological target: GOPC, Q9HD26
GORASP2, Q9H8Y8 = biological target: GORASP2, Q9H8Y8
GRIP2_5, Q9C0E4 = biological target: GRIP2_5, Q9C0E4
Chain of GRIP2_5, Q9C0E4 (Q9C0E4 544-642): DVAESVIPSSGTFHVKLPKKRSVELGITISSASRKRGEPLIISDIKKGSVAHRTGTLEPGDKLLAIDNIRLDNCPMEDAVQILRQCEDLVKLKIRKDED

HTRA4, P83105 = biological target: T3, HTRA4, P83105
IL16_1, Q14005 = biological target: IL16_1, Q14005
Chain of IL16_1, Q14005 (Q14005 210-306): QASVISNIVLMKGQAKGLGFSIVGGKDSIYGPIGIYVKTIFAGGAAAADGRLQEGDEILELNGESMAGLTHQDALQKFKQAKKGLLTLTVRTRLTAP

IL16_4, Q14005 = biological target: IL16_4, Q14005
Chain of IL16_4, Q14005 (Q14005 1229-1329): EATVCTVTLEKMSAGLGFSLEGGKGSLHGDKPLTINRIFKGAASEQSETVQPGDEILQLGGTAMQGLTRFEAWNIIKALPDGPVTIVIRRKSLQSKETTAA

Inadl_8, Q8NI35 = biological target: Inadl_8, Q8NI35
Chain of Inadl_8, Q8NI35 (Q8NI35 1425-1530): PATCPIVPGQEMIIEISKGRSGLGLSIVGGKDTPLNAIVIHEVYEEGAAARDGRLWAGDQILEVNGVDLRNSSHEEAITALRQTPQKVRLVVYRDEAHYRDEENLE

LIMK2, P53671 = biological target: LIMK2, P53671
Chain of LIMK2, P53671 (P53671 143-248): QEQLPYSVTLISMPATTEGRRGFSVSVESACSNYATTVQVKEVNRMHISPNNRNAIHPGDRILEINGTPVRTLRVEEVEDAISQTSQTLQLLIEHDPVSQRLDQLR

LIN7B, Q9HAP6 = biological target: T4, LIN7B, Q9HAP6
MPDZ_10, O75970 = biological target: T5, MPDZ_10, O75970
NHERF3_1, Q5T2W1 = biological target: T6, NHERF3_1, Q5T2W1
NOS1, P29475 = biological target: NOS1, P29475
Chain of NOS1, P29475 (P29475 9-101): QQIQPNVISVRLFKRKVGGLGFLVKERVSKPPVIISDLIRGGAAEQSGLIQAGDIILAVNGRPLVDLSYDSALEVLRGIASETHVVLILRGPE

PARD3_3, Q8TEW0 = biological target: PARD3_3, Q8TEW0
Chain of PARD3_3, Q8TEW0 (Q8TEW0 582-685): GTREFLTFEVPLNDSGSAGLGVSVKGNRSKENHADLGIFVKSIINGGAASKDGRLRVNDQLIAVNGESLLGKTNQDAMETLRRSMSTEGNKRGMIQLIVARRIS

PDLIM1, O00151 = biological target: PDLIM1, O00151
Chain of PDLIM1, O00151 (O00151 1-87): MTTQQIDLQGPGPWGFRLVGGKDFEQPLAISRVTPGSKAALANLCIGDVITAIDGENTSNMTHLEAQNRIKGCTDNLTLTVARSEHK

RAPGEF6, Q8TEU7 = biological target: T7, RAPGEF6, Q8TEU7
SCRIB_1, Q14160 = biological target: SCRIB_1, Q14160
Chain of SCRIB_1, Q14160 (Q14160 718-814): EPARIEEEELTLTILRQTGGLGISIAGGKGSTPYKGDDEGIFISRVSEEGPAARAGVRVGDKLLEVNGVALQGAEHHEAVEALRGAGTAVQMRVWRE

SNTA1, Q13424 = biological target: T8, SNTA1, Q13424
SNTG1, Q9NSN8 = biological target: T9, SNTG1, Q9NSN8
SNTG2, Q9NY99 = biological target: T10, SNTG2, Q9NY99
TIAM2, Q8IVF5 = biological target: T11, TIAM2, Q8IVF5

pKd (CASK, O14936) | pKd (DFNB31_1, Q9P202) | pKd (DLG3_2, Q92796) | pKd (DLG4_3, P78352) | pKd (DLG5_1, Q8TDM6) | pKd (FRMPD2_2, Q68DX3) | pKd (GOPC, Q9HD26) | pKd (GORASP2, Q9H8Y8) | pKd (GRIP2_5, Q9C0E4) | pKd (HTRA4, P83105) | pKd (IL16_1, Q14005) | pKd (IL16_4, Q14005) | pKd (Inadl_8, Q8NI35) | pKd (LIMK2, P53671) | pKd (LIN7B, Q9HAP6) | pKd (MPDZ_10, O75970) | pKd (NHERF3_1, Q5T2W1) | pKd (NOS1, P29475) | pKd (PARD3_3, Q8TEW0) | pKd (PDLIM1, O00151) | Binder | further results
below the threshold | 3.59 | 4.23 | below the threshold | below the threshold | below the threshold | below the threshold | below the threshold | below the threshold | below the threshold | below the threshold | below the threshold | 3.77 | below the threshold | 3.75 | below the threshold | below the threshold | below the threshold | below the threshold | below the threshold | TLPRKRMSSI [GPRC6A, Q5T6X5] | pKd (RAPGEF6, Q8TEU7): below the threshold; pKd (SCRIB_1, Q14160): below the threshold; pKd (SNTA1, Q13424): below the threshold; pKd (SNTG1, Q9NSN8): below the threshold; pKd (SNTG2, Q9NY99): below the threshold; pKd (TIAM2, Q8IVF5): 4.07
below the threshold | 4.02 | 4.74 | below the threshold | below the threshold | 4.1 | 3.82 | 4.05 | below the threshold | 3.59 | 4.1 | below the threshold | 3.72 | below the threshold | below the threshold | below the threshold | 3.64 | below the threshold | 3.85 | below the threshold | TACCHSETVV [TGFA, P01135] | pKd (RAPGEF6, Q8TEU7): below the threshold; pKd (SCRIB_1, Q14160): 4.3; pKd (SNTA1, Q13424): 5.04; pKd (SNTG1, Q9NSN8): 4.43; pKd (SNTG2, Q9NY99): 4.38; pKd (TIAM2, Q8IVF5): below the threshold
below the threshold | below the threshold | 4.12 | below the threshold | below the threshold | below the threshold | below the threshold | below the threshold | below the threshold | below the threshold | below the threshold | below the threshold | 4.06 | below the threshold | 3.7 | 3.49 | 3.94 | below the threshold | below the threshold | below the threshold | SAAKVLTSMC [GHRHR, Q02643] | pKd (RAPGEF6, Q8TEU7): below the threshold; pKd (SCRIB_1, Q14160): 4.58; pKd (SNTA1, Q13424): below the threshold; pKd (SNTG1, Q9NSN8): below the threshold; pKd (SNTG2, Q9NY99): below the threshold; pKd (TIAM2, Q8IVF5): below the threshold
below the threshold | below the threshold | below the threshold | below the threshold | below the threshold | below the threshold | below the threshold | 5.16 | below the threshold | below the threshold | below the threshold | below the threshold | below the threshold | below the threshold | below the threshold | below the threshold | below the threshold | below the threshold | below the threshold | below the threshold | QSPANIYYKV [EFNB1, P52799] | pKd (RAPGEF6, Q8TEU7): below the threshold; pKd (SCRIB_1, Q14160): below the threshold; pKd (SNTA1, Q13424): below the threshold; pKd (SNTG1, Q9NSN8): below the threshold; pKd (SNTG2, Q9NY99): below the threshold; pKd (TIAM2, Q8IVF5): 4.1
below the threshold | 5.41 | 4.32 | 4.23 | below the threshold | 3.97 | 4.42 | 3.55 | below the threshold | 3.61 | 3.68 | 3.47 | 3.81 | below the threshold | 4.35 | below the threshold | 4.88 | below the threshold | 3.74 | below the threshold | QSARLWETSI [ADAM22, Q9P0K1] | pKd (RAPGEF6, Q8TEU7): below the threshold; pKd (SCRIB_1, Q14160): 5.23; pKd (SNTA1, Q13424): 4.49; pKd (SNTG1, Q9NSN8): 4.82; pKd (SNTG2, Q9NY99): 4.86; pKd (TIAM2, Q8IVF5): 3.97
below the threshold | below the threshold | below the threshold | below the threshold | below the threshold | below the threshold | below the threshold | below the threshold | below the threshold | below the threshold | below the threshold | below the threshold | below the threshold | below the threshold | below the threshold | below the threshold | below the threshold | 4.38 | below the threshold | below the threshold | TSSMRGMDAV [RSRC2, Q7L4I2] | pKd (RAPGEF6, Q8TEU7): below the threshold; pKd (SCRIB_1, Q14160): below the threshold; pKd (SNTA1, Q13424): below the threshold; pKd (SNTG1, Q9NSN8): below the threshold; pKd (SNTG2, Q9NY99): below the threshold; pKd (TIAM2, Q8IVF5): below the threshold
